In PMC5434896, “Inhibition of PDE5A1 guanosine cyclic monophosphate (cGMP) hydrolysing activity by sildenafil analogues that inhibit cellular cGMP efflux” (The Journal of Pharmacy and Pharmacology, 2017):

Tested on: [H][C@@]12COP(=O)(O)O[C@@]1([H])[C@@H](O)[C@H](n1cnc3c(=O)[nH]c(N)nc31)O2
Assay: [3H]-cGMP hydrolysis, snake venom nucleotidase, anion-exchange separation
Assay type: biochemical, Homo sapiens
Details: [3H]-cGMP mixed with unlabelled cGMP […], […] MgCl2, pH […]

In the case of PDE5A1 (Homo sapiens), the Km is reported as 1.7 ± 0.4 µM.
